The target of one test is hLHR-Rluc8 (human) (UniProt P22888).
For test [1], the target named is human luteinizing hormone receptor (wildtype) (human) (UniProt P22888).
A further test concerns the target Gαs-Rluc8 (UniProt P63092). In words: FRET or BRET; BRET in live HEK 293 cells transiently co-expressing Gαs-Rluc8 with Venus-Gγ2 or Venus-Gβ1 in the presence of hFSHR or hLHR; read every 0.5 s before and after injection of 10 nM hFSH or hCG; 96-well format. Background: Bioluminescence resonance energy transfer reports proximity on the nanometre scale.
Chain of UniProt P63092 (P63092 whole entry): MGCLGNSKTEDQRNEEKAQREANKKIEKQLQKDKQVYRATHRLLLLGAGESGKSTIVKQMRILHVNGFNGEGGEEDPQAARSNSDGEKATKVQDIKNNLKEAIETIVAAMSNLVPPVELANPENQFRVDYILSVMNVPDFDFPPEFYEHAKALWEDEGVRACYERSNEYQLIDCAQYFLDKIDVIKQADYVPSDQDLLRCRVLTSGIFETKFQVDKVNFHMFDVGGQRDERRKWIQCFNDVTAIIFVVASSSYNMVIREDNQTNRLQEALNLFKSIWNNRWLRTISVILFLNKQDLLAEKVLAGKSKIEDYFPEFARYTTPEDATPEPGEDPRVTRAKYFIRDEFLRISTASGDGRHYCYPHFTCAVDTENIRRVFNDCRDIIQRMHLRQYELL

Chain of Venus-Gγ2 (P59768 whole entry): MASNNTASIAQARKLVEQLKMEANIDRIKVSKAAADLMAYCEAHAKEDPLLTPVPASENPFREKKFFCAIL

Consider “human chorionic gonadotropin (from UniProt P01215 25-116; P0DN86 21-165) (ligand)”, for which the receptor internalization, decrease of BRET between hLHR-Rluc8 and the plasma membrane marker Venus-KRas in HEK 293 cells; EC50 of hCG with hLHR-Rluc8 (human) came out at 4.9 nM. Also, in test [1], the cAMP accumulation, HTRF assay in HEK 293 cells expressing hLHR; EC50 of hCG came out at 0.0019 nM and the cAMP production, BRET sensor CAMYEL in HEK 293 cells expressing hLHR; EC50 of hCG was determined as 0.0035 nM. Consider “Venus-Gγ2 (from UniProt P59768 1-71) (natural protein)”, for which the t1/2 of the hFSH-induced BRET decrease (with hFSHR) with Gαs-Rluc8 is 16.8 s. “β-arrestin 2-TEV fusion protein (from UniProt P32121 1-409) (natural protein)”: the TANGO assay (tTA-dependent firefly luciferase reporter in HTLA cells, 14–20 h with increasing hFSH); EC50 of hFSH with FSHR/AVPR2-CT chimera was found to be 5.7 nM.

The record behind these values is paper PMC4550792.
